Test results taken from patent publication US6699662, “Inhibitors of staphylococcus SarA protein function involved in the expression of staphylococcal virulence factors and the use thereof in treating staphylococcal infections” (University of Arkansas).

Molecular target: T1, SarA (staphylococcal accessory regulator A), strain DB (Staphylococcus aureus, UniProt Q2G2U9 SEQ:1-124)
T1 sequence: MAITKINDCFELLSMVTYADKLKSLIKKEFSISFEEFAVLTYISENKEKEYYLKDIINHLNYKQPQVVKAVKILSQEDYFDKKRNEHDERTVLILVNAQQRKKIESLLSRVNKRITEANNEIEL
Assay: footprint
Conditions: tags: none (untagged full-length, expressed from pET9a in E. coli BL21(DE3)pLys); chain copies: 2 (dimer, stated); label: 32P

B1: agr P2-P3 inter-promoter region (cloned in pBKH50; DNase I footprint fragment about 240 bp with vector ends) (dsDNA)
DNA 1: CATTAAAACATGCTAAAAGCATTTATTTTCCAATTTTTCTTAACTAGTCGTTTTTTATTCTTAACTGTAAATTTTTTTATGTTAAAATATTAAATACAAATTACATTTAACAGTTAAGTATTTATTTCCTACAGTTAGGCAATATAATGATAAAAGATTGTACTAAATCGTATAATGACAGGATCCCCGG
DNA 2: CCGGGGATCCTGTCATTATACGATTTAGTACAATCTTTTATCATTATATTGCCTAACTGTAGGAAATAAATACTTAACTGTTAAATGTAATTTGTATTTAATATTTTAACATAAAAAAATTTACAGTTAAGAATAAAAAACGACTAGTTAAGAAAAATTGGAAAATAAATGCTTTTAGCATGTTTTAAGT
**Q.** With B1 as the binder, how does the “apparent K (half saturation)” value read?
**A.** 4.24 pM
